In patent US20250051460A1:

Molecular target: human VEGF-A (human) (UniProt P15692)
Assay: cell-based or functional assay

Sequence of EYLEA (aflibercept) (Fc fusion) (chain): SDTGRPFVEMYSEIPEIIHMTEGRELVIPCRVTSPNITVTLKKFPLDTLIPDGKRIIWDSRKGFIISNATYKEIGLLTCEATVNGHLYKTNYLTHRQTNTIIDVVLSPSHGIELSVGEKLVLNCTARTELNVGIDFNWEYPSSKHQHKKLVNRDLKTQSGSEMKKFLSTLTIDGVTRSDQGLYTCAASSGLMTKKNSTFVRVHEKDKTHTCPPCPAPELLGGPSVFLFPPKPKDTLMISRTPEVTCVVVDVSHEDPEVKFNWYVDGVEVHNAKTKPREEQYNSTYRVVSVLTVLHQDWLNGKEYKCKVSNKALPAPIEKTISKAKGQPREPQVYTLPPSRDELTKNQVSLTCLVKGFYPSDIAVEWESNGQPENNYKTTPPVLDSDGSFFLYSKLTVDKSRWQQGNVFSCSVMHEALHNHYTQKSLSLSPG
Sequence of human VEGF-A (human) (P15692 other isoform, or with tags, fused parts or gaps limits assumed): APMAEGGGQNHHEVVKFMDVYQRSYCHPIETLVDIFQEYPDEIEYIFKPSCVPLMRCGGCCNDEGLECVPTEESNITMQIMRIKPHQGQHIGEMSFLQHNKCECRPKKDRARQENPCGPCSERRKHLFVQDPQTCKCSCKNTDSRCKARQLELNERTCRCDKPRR

## EYLEA (aflibercept) (Fc fusion)
  ERK1/2 phosphorylation: Bottom plateau (AlphaLISA counts) (AlphaLISA counts): 21700
  ERK1/2 phosphorylation: Top plateau (AlphaLISA counts) (AlphaLISA counts): 109000
  HRMEC proliferation, delta area under the curve vs. basal: Top plateau (arbitrary units) (arbitrary units): 129
  HRMEC proliferation: Bottom plateau (arbitrary units) (arbitrary units): 13.3
  HRMEC proliferation: IC50 (pM): 171 pM
  HRMEC proliferation: LogIC50: -9.77
  IC50 (p38 MAPK phosphorylation): 0.74 nM
  Src phosphorylation (Y419): Bottom plateau (AlphaLISA counts) (AlphaLISA counts): 2210
  Src phosphorylation (Y419): IC50: 0.933 nM
  Src phosphorylation (Y419): LogIC50: -9.37
  Src phosphorylation (Y419): Top plateau (AlphaLISA counts) (AlphaLISA counts): 3420
  inhibition of VEGF-induced HRMEC proliferation: 16 nM
  p38-MAPK phosphorylation (T180/Y182): Bottom plateau (AlphaLISA counts) (AlphaLISA counts): 8890
  p38-MAPK phosphorylation (T180/Y182): IC50: 0.748 nM
  p38-MAPK phosphorylation (T180/Y182): LogIC50: -9.13
  p38-MAPK phosphorylation (T180/Y182): Top plateau (AlphaLISA counts) (AlphaLISA counts): 23100
